Experiments:
[1] = target: the molecule itself; assay: cross-linking; intact HeLa cells treated with 0.75% formaldehyde for 10 min at room temperature, stopped with 125 mM glycine; 50 ug total lysate on 8% SDS-PAGE, immunoblot with anti-hASCT2
[2] = target: the molecule itself; assay: cross-linking; purified WT hASCT2 in detergent, without or with 0.75 mg CHEMS, 1 or 4% formaldehyde in 20 mM Tris HCl pH 9.0 for 2 min at 23°C, stopped with 1.25 M glycine; 8% SDS-PAGE, immunoblot with anti-hASCT2

B1: human SLC1A5 (ASCT2), endogenous in HeLa cells (natural protein, human (endogenous in HeLa), UniProt Q15758 1-541, looked up)
chain: MVADPPRDSKGLAAAEPTANGGLALASIEDQGAAAGGYCGSRDQVRRCLRANLLVLLTVVAVVAGVALGLGVSGAGGALALGPERLSAFVFPGELLLRLLRMIILPLVVCSLIGGAASLDPGALGRLGAWALLFFLVTTLLASALGVGLALALQPGAASAAINASVGAAGSAENAPSKEVLDSFLDLARNIFPSNLVSAAFRSYSTTYEERNITGTRVKVPVGQEVEGMNILGLVVFAIVFGVALRKLGPEGELLIRFFNSFNEATMVLVSWIMWYAPVGIMFLVAGKIVEMEDVGLLFARLGKYILCCLLGHAIHGLLVLPLIYFLFTRKNPYRFLWGIVTPLATAFGTSSSSATLPLMMKCVEENNGVAKHISRFILPIGATVNMDGAALFQCVAAVFIAQLSQQSLDFVKIITILVTATASSVGAAGIPAGGVLTLAIILEAVNLPVDHISLILAVDWLVDRSCTVLNVEGDALGAGLLQNYVDRTESRSTEPELIQVKSELPLDPLPVPTEEGNPLLKHYRGPAGDATVASEKESVM
notes: ASCT2 (SLC1A5), sodium-dependent neutral amino acid antiporter, endogenous in HeLa cells; Detected with anti-hASCT2 (rabbit, Millipore) after formaldehyde cross-linking of intact cells; also called hASCT2; source: endogenous, intact HeLa cells (cross-linked in the cells, then total lysate)
[1]
  stoichiometry N: 3

B2: recombinant hASCT2-6His WT (natural protein, human)
chain: MVADPPRDSKGLAAAEPTANGGLALASIEDQGAAAGGYCGSRDQVRRCLRANLLVLLTVVAVVAGVALGLGVSGAGGALALGPERLSAFVFPGELLLRLLRMIILPLVVCSLIGGAASLDPGALGRLGAWALLFFLVTTLLASALGVGLALALQPGAASAAINASVGAAGSAENAPSKEVLDSFLDLARNIFPSNLVSAAFRSYSTTYEERNITGTRVKVPVGQEVEGMNILGLVVFAIVFGVALRKLGPEGELLIRFFNSFNEATMVLVSWIMWYAPVGIMFLVAGKIVEMEDVGLLFARLGKYILCCLLGHAIHGLLVLPLIYFLFTRKNPYRFLWGIVTPLATAFGTSSSSATLPLMMKCVEENNGVAKHISRFILPIGATVNMDGAALFQCVAAVFIAQLSQQSLDFVKIITILVTATASSVGAAGIPAGGVLTLAIILEAVNLPVDHISLILAVDWLVDRSCTVLNVEGDALGAGLLQNYVDRTESRSTEPELIQVKSELPLDPLPVPTEEGNPLLKHYRGPAGDATVASEKESVM
notes: human ASCT2 (SLC1A5), wild type, construct pPICZB-ASCT2-6His; no cleavage of the tag is described; In the cross-linking the protein was detected with anti-hASCT2; also called purified WT hASCT2; SLC1A5; source: P. pastoris X-33 (pPICZB-ASCT2-6His), solubilised in C12E8, purified (Ni-NTA, PD-10)
[2]
  stoichiometry N: 3

From article PMC6819821, “Interaction of Cholesterol With the Human SLC1A5 (ASCT2): Insights Into Structure/Function Relationships” (Frontiers in Molecular Biosciences, 2019)
